Earlier results on four substances are cited in PMC10653114.

Broadly, the pKa is the negative logarithm of the acid dissociation constant.

The target in one data set is Asp61 (UniProt position 435, STVTQDGSAVH). The following applies: 298 K; Conc. 0.10 (unit not given; K+/Cl–).
The next data set deals with Glu57 (UniProt position 57, AIVALEALKEH). In words: NMR (per the title of cited ref 95). To be noted: 300 K; Conc. 0.10 (unit not given; Na+/Cl–).
The next data set addresses Glu147 (UniProt position 147, MNPTLEDTGYQ). Put plainly: NMR (per the title of cited ref 95). To be noted: 300 K; Conc. 0.10 (unit not given; Na+/Cl–).
The target of a further data set is Asp10 (UniProt position 10, VEIFTDGSCLG). Put plainly: NMR (per the title of cited ref 95). To be noted: 300 K; Conc. 0.10 (unit not given; Na+/Cl–).
In a further data set the target is Asp108 (UniProt position 108, LWQRLDAALGQ). Put plainly: NMR (per the title of cited ref 95). To be noted: 300 K; Conc. 0.10 (unit not given; Na+/Cl–).
The next data set deals with Glu135 (UniProt position 135, NERCDELARAA). In words: NMR (per the title of cited ref 95). To be noted: 300 K; Conc. 0.10 (unit not given; Na+/Cl–).
In a further data set the target is Glu129 (UniProt position 129, HAGHPENERCD). In words: NMR (per the title of cited ref 95). The following applies: 300 K; Conc. 0.10 (unit not given; Na+/Cl–).
The target of a further data set is Glu154 (UniProt position 154, TGYQVEV----). Put plainly: NMR (per the title of cited ref 95). The following applies: 300 K; Conc. 0.10 (unit not given; Na+/Cl–).
The next data set deals with Glu61 (UniProt position 61, LEALKEHCEVI). Put plainly: NMR (per the title of cited ref 95). To be noted: 300 K; Conc. 0.10 (unit not given; Na+/Cl–).
Another data set concerns the target Asp70 (UniProt position 70, VILSTDSQYVR). Put plainly: NMR (per the title of cited ref 95). The following applies: 300 K; Conc. 0.10 (unit not given; Na+/Cl–).
For the next data set, the target named is Glu131 (UniProt position 131, GHPENERCDEL). In words: NMR (per the title of cited ref 95). To be noted: 300 K; Conc. 0.10 (unit not given; Na+/Cl–).
A further data set addresses Glu64 (UniProt position 64, LKEHCEVILST). In words: NMR (per the title of cited ref 95). To be noted: 300 K; Conc. 0.10 (unit not given; Na+/Cl–).
Another data set addresses Asp134 (UniProt position 134, ENERCDELARA). In words: NMR (per the title of cited ref 95). The following applies: 300 K; Conc. 0.10 (unit not given; Na+/Cl–).
The next data set deals with Glu119 (UniProt position 119, HQIKWEWVKGH). Put plainly: NMR (per the title of cited ref 95). The following applies: 300 K; Conc. 0.10 (unit not given; Na+/Cl–).
The target in the next data set is Asp94 (UniProt position 94, GWKTADKKPVK). In words: NMR (per the title of cited ref 95). The following applies: 300 K; Conc. 0.10 (unit not given; Na+/Cl–).
For a further data set, the target named is Glu32 (UniProt position 32, RYRGREKTFSA). In words: NMR (per the title of cited ref 95). The following applies: 300 K; Conc. 0.10 (unit not given; Na+/Cl–).
For data set [1], the target named is Glu6 (UniProt position 6, MLKQVEIFTDG). In words: NMR (per the title of cited ref 95). To be noted: 300 K; Conc. 0.10 (unit not given; Na+/Cl–).
The target in the next data set is Glu48 (UniProt position 48, TNNRMELMAAI). Put plainly: NMR (per the title of cited ref 95). To be noted: 300 K; Conc. 0.10 (unit not given; Na+/Cl–).
The target in another data set is Glu13 (UniProt position 13, KTAFQEALDAA). The following applies: 298 K; Conc. 0.00 (unit not given; Na+/Cl–).
For data set [2], the target named is Glu6 (UniProt position 6, MVKQIESKTAF). The following applies: 298 K; Conc. 0.00 (unit not given; Na+/Cl–).
In another data set the target is Asp20 (UniProt position 20, LDAAGDKLVVV). To be noted: 298 K; Conc. 0.00 (unit not given; Na+/Cl–).
In another data set the target is Glu68 (UniProt position 68, QDVASECEVKC). The following applies: 298 K; Conc. 0.00 (unit not given; Na+/Cl–).
A further data set has as its target Glu98 (UniProt position 98, NKEKLEATINE). To be noted: 298 K; Conc. 0.00 (unit not given; Na+/Cl–).
Another data set concerns the target Asp16 (UniProt position 16, FQEALDAAGDK). To be noted: 298 K; Conc. 0.00 (unit not given; Na+/Cl–).
Another data set has as its target Glu95 (UniProt position 95, SGANKEKLEAT). The following applies: 298 K; Conc. 0.00 (unit not given; Na+/Cl–).
The next data set concerns the target Asp64 (UniProt position 64, VDDCQDVASEC). To be noted: 298 K; Conc. 0.00 (unit not given; Na+/Cl–).
The target in another data set is Asp26 (UniProt position 26, KLVVVDFSATW). The following applies: 298 K; Conc. 0.00 (unit not given; Na+/Cl–).
Another data set has as its target Glu47 (UniProt position 47, FHSLSEKYSNV). The following applies: 298 K; Conc. 0.00 (unit not given; Na+/Cl–).
In a further data set the target is Glu88 (UniProt position 88, GQKVGEFSGAN). The following applies: 298 K; Conc. 0.00 (unit not given; Na+/Cl–).
The next data set has as its target Glu56 (UniProt position 56, NVIFLEVDVDD). To be noted: 298 K; Conc. 0.00 (unit not given; Na+/Cl–).
A further data set addresses Glu103 (UniProt position 103, EATINELV---). To be noted: 298 K; Conc. 0.00 (unit not given; Na+/Cl–).
Another data set has as its target Glu70 (UniProt position 70, VASECEVKCMP). The following applies: 298 K; Conc. 0.00 (unit not given; Na+/Cl–).
The target of another data set is Asp27 (UniProt position 156, PLCGSDNKTYG). The following applies: 298 K; Conc. 0.015 (unit not given; K+/Cl–).
The next data set has as its target Lys13 (UniProt position 142, CSEYPKPACTL). To be noted: 298 K; Conc. 0.015 (unit not given; K+/Cl–).
For another data set, the target named is Lys29 (UniProt position 158, CGSDNKTYGNK). To be noted: 298 K; Conc. 0.015 (unit not given; K+/Cl–).
The next data set deals with Asp7 (UniProt position 136, AAVSVDCSEYP). To be noted: 298 K; Conc. 0.015 (unit not given; K+/Cl–).
The next data set has as its target Lys55 (UniProt position 184, LSHFGKC----). The following applies: 298 K; Conc. 0.015 (unit not given; K+/Cl–).
Another data set deals with Lys34 (UniProt position 163, KTYGNKCNFCN). To be noted: 298 K; Conc. 0.015 (unit not given; K+/Cl–).

Take “Highly charge-depleted protein (PDB 6QFS), S61D/T66H variant (Cellulomonas fimi (parent domain; not stated in the article); S61D;T66H (on the 6QFS charge-depleted background; background substitutions not stated))”: the pKa with Asp61 is reported as 4.10 ± 0.02.
Turning to Ribonuclease HI (Escherichia coli), the pKa with Glu57 is listed as 3.2; with Glu147, 4.2; with Asp10, 6.1; in the data set with Asp108 it was 3.2; in the data set with Glu135 it was 4.3; in the data set with Glu129, 3.6. Further, the pKa was 4.4 in the data set with Glu154; 3.9 with Glu61; 2.6 with Asp70; 4.3 in the data set with Glu131; 4.4 with Glu64; 4.1 with Asp134. The pKa with Glu119 is listed as 4.1; with Asp94, 3.2; in the data set with Glu32 it was 3.6; with Glu6 [1] it was 4.5; in the data set with Glu48 it was 4.4.
Turning to “Thioredoxin (human, reduced) (Homo sapiens)”, the pKa with Glu13 is given as 4.4 ± 0.07; in the data set with Glu6 [2], 4.8 ± 0.08; with Asp20, 3.8 ± 0.05; with Glu68, 4.9 ± 0.07; in the data set with Glu98 it was 3.9 ± 0.02; with Asp16 it was 4.1 ± 0.10. Besides, the pKa in the data set with Glu95 was 4.1 ± 0.02; in the data set with Asp64, 3.2 ± 0.06; with Asp26 it was 9.9 ± 0.10; in the data set with Glu47 it was 4.1 ± 0.10; with Glu88, 3.7 ± 0.08; with Glu56, 3.1 ± 0.10. The pKa with Glu103 was 4.4 ± 0.07; in the data set with Glu70 it was 4.6 ± 0.08.
For “Turkey ovomucoid third domain (OMTKY3) (Meleagris gallopavo)”, the pKa with Asp27 is listed as 2.56 ± 0.03; in the data set with Lys13 it was 9.86 ± 0.03; with Lys29, 11.12 ± 0.02; with Asp7, 2.95 ± 0.03; with Lys55, 11.10 ± 0.06; in the data set with Lys34, 10.13 ± 0.05.
